This note sets out measurements from US20040058416A1.

The experiment deals with trkB-IgG immunoadhesin (human trkB extracellular domain fused to human IgG-1 Fc) (human). In words: competitive displacement of iodinated BDNF from trkB-IgG by unlabelled NT4/5.
trkB-IgG immunoadhesin (human trkB extracellular domain fused to human IgG-1 Fc) (human), sequence (Q16620 32-423): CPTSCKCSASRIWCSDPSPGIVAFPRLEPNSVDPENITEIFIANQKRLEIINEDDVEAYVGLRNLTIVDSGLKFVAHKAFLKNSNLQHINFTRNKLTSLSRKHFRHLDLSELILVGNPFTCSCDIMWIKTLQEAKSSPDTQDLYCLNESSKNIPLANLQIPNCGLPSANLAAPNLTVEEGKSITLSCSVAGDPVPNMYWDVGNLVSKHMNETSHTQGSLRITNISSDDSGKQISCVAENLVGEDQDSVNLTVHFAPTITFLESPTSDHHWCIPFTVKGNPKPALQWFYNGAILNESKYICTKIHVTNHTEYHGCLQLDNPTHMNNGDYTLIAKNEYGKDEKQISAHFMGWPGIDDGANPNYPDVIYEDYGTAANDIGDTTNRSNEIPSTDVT

In general, IC50 refers to the concentration that gives 50% inhibition. The low end stands for inhibition by little substance, the high end for a need for much substance. The substance “neurotrophin-4/5 (NT-4/5) (from UniProt P34130 81-210) (ligand)” had an IC50 of 0.2 nM.
